# Legend:
# [1] = target: Aβ42 fibrils; assay: SPR; sonicated Aβ42 fibrils immobilised by amine coupling on a C1 chip (BIAcore 3000); R221E Bri2 BRICHOS injected at 0.195-50 uM in HBS-E (10 mM HEPES, 150 mM NaCl, 0.2 mM EDTA, pH 7.5), 30 uL/min; two-phase association and two-phase dissociation model, global fit; apparent constants
# [2] = target: Aβ42 fibrils; assay: co-sedimentation; sample of co-incubated BRICHOS-Aβ42 fibrils centrifuged; BRICHOS in the supernatant measured by SDS-PAGE
# [3] = target: Aβ42 fibrils; assay: NMR titration; solution 1H-15N HSQC of 74 uM 15N-labelled BRICHOS before and after adding sonicated unlabelled Aβ42 fibrils at 1:1 (related to monomeric Aβ42); 20 mM sodium phosphate, 0.2 mM EDTA, pH 7.4, 25 °C; loss of signal intensity taken as the bound population
substance,measurement,setting,value
recombinant human Bri2 BRICHOS R221E monomer (domain or fragment),KD app of the strong phase (two-phase model),[1],12.9 nM
same,percent of BRICHOS in the soluble fraction,[2],95%
same,percent of total BRICHOS bound,[2],5 to 10%
same,percent of HSQC signal intensity left after adding fibrils at 1:1,[3],90%
same,percent of total BRICHOS bound,[3],5 to 10%
same,relative signal attenuation (population of bound BRICHOS),[3],10%

# Source: paper PMC10834949
